Assays:
Experiment in all cases: BLI
Settings in all cases: both partners purified
[1] = molecular target: influenza hemagglutinin (HA) from H1N1 A/California/07/2009 (Influenza A virus H1N1 …, UniProt C3W5X2, biotinylated)
[2] = molecular target: T1, biotinylated αTSR domain of P. falciparum circumsporozoite protein (Plasmodium falciparum 3D7 (by PDB 7RXI))
T1 construct: also called P. falciparum CSP; C-terminal αTSR domain of P. falciparum circumsporozoite protein
T1 chain: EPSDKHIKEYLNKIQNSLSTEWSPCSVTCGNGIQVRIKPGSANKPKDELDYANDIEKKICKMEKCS

[3] = molecular target: T2, His6-tagged SARS-CoV-2 receptor-binding domain (SARS-CoV-2, UniProt P0DTC2)
T2 construct: source: High Five cells, purified (Ni-NTA, size exclusion)

B1: 5J8 Fab (WT) (Fab, V domains shown)
VH: EVQLVESGPGLVKPSDILSLTCAVSGYSISSNYYWGWIRQPPGKGLEWIGSIYHSGSTYYKPSLESRLGISVDTSKNQFSLKLSFVSAADTAVYYCARHVRSGYPDTAYYFDKWGQGTLVTVSS
VL: SYVLTQPPSVSVAPGETARISCGGNNIGTKVLHWYQQTPGQAPVLVVYDDSDRPSGIPERFSGSNSGNTATLTISRVEVGDEADYYCQVWDISTDQAVFGGGTKLTVL
notes: also called IGLV3–21 antibody 5J8; source: ExpiCHO, transiently co-transfected, purified (CaptureSelect CH1-XL)
Q: Does B1 bind [1]?
A: binds

B2: Fab234 (WT) (Fab, V domains shown)
VH: EVQLVESGGGLVKPGGSLRLSCAASGFNFSTHIMNWVRQAPGKGLEWVSSISSSGTYIYYADSMKGRFTISRDNPKNSLYLQMNSLRAEDTAVYYCARARGFIQFHYYMDVWGKGTTVAVSS
VL: SYVLTQPPSVSVAPGKTARITCGGNNIGSKSVHWHQQRPGQAPVLVVYDDKIRPSGIPERFSGSNSGNTATLIISRVEAGDEADYYCQVWHSSSDPVVFGGGTKLTVL
Q: Does B2 bind [2]?
A: binds

B3: GAR12 Fab VL D50K (Fab, V domains shown)
VH: EVQLVQSGGGLVQPGGSLRLSCAASGFTFSSYAMSWVRQAPGKGLEWVLSISGSGGSTYYADSVKGRFTISIDNSKKTVYLQMNSLRAEDTAVYYCAKSGEQQLVQAEYFHHWGQGTLVTVSS
VL: DIQMTQSPSTLSASVGDRVTITCRASQSIGRWLAWYQQKPGKAPKLLIYKASSLESGVPSRFSGSGFGTEFTLTISSLQPDDFATYYCQQCDSLLTFGGGTKLEIK
notes: also called GAR12 VL D50K; source: ExpiCHO, transiently co-transfected, purified (CaptureSelect CH1-XL)
Q: How did the “fold change in KD against the wild type” value [3] turn out when B3 was run?
A: 44 fold
